According to US20240294622A1 (SUZHOU TRANSCENTA THERAPEUTICS, published 2024):

Columns and labels:
HGREM1-His (ACRO) [1] = molecular target: T1, HGREM1-His (ACRO) (human, UniProt O60565 25-184); experiment: ELISA: coated BMP4, gremlin titrated (sheet title: BMP2/4/7 binding to human gremlin-his)
T1 construct: Lys25-Asp184 of NP_037504 with C-terminal polyhistidine tag (ACRO GR1-H52H3); they are put here; also called hGREM1 (ACRO); human gremlin (ACRO)
T1 sequence: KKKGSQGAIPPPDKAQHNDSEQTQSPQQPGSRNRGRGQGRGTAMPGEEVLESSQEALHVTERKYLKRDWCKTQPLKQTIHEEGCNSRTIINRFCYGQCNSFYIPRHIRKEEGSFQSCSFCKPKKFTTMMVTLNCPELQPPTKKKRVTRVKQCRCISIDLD
Experimental: (§1) Gremlin is known to be able to bind to BMP proteins and is validated by the present disclosure. Briefly, gremlin-Fc was tested for its binding ability to BMP 2/4/7 immobilized on plate. Briefly, plates were coated with […] of recombinant human BMP2, BMP4) (hBMP4, Peprotech) or human BMP7 (R&D) overnight and wild-type gremlin-1 was added to coated plates and allowed to incubate for an additional hour at RT. The plates were then washed and plate bound biotin-hGremlin was detected with neutravidin conjugated with HRP (thermo). Plates were then developed with a TMB solution and stopped by adding stop solution. The plates were read on a plate reader at 450 nm.

Gremlin-Fc [2] = molecular target: T2, Gremlin-Fc (human, UniProt O60565 25-184); experiment: ELISA, coated BMP4 0.5 ug/ml
T2 construct: also called HGREM1-Fc (ACRO); wild-type gremlin-1
T2 sequence: T1 sequence
Experimental: as §1

HGREM1-His (ACRO) [3] = molecular target: T1, HGREM1-His (ACRO); experiment: ELISA: coated BMP2, gremlin titrated (sheet title: BMP2/4/7 binding to human gremlin-his)
Gremlin-Fc [4] = molecular target: T2, Gremlin-Fc; experiment: ELISA, coated BMP2 0.5 ug/ml
Experimental: as §1

BMP7 with his-tag = molecular target: T3, BMP7 with his-tag (Homo sapiens (Human), UniProt P18075 293-431, Natural BMP7 is a disulfide-linked homodimer; one protomer is given. The his-tag is left out.); experiment: ELISA: anti-human Fc coated, XM5-hFc supernatant (1:32) captured, his-tagged BMP7 titrated, anti-his-HRP
T3 construct: also called BMPs (BMP2/4/7) with his-tag
T3 sequence: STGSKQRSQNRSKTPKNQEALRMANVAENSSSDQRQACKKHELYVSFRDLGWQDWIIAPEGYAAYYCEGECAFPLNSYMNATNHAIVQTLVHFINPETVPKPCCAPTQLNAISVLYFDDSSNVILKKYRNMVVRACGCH

BMP2 with his-tag = molecular target: T4, BMP2 with his-tag (Homo sapiens (Human), UniProt P12643 283-396, Natural BMP2 is a disulfide-linked homodimer; one protomer is given. The his-tag is left out.); experiment: ELISA: anti-human Fc coated, XM5-hFc supernatant (1:32) captured, his-tagged BMP2 titrated, anti-his-HRP
T4 construct: soluble his-tagged BMP used on captured XM5-Fc or Gremlin-Fc; also called BMPs (BMP2/4/7) with his-tag

BMP4 with his-tag = molecular target: T5, BMP4 with his-tag (Homo sapiens (Human), UniProt P12644 293-408, Natural BMP4 is a disulfide-linked homodimer; one protomer is given. The his-tag is left out.); experiment: ELISA: anti-human Fc coated, XM5-hFc supernatant (1:32) captured, his-tagged BMP4 titrated, anti-his-HRP
T5 construct: also called BMPs (BMP2/4/7) with his-tag
T5 sequence: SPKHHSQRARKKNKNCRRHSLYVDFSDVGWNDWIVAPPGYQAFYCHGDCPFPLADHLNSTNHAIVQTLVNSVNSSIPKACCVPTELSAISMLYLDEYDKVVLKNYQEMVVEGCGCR

HGREM1-His (ACRO) [5] = molecular target: T1, HGREM1-His (ACRO); experiment: BLI Fortebio, human gremlin-his on NTA biosensor, antibody 100, 50, 25 nM
Experimental: The affinity of the humanized antibodies were also measured by Fortebio. Human gremlin protein was diluted with kinetics buffer to get a concentration of 2 μg/ml. 0 nM was used as a reference control. Antibodies to be tested were diluted with ForteBio kinetics buffer (PBS pH 7.4, 0.1% BSA+0.002% Tween-20) to a concentration of 100 nM, 50 nM, and 25 nM. Human gremlin-his was immobilized onto NTA biosensor. The baseline was detected for 60 seconds, and then anti-gremlin antibody association was detected for 120 seconds to get the Kₒₙ factor data. Followed by dissociation in kinetic buffer for 90 seconds to get the Koff factor data.

[6] = molecular target: T6, hGREM1 (source and construct not stated) (human, UniProt O60565 25-184); experiment: ELISA on hGREM1
T6 construct: also called Gremlin; gremlin
T6 sequence: T1 sequence

HGREM1-His (ACRO) [7] = molecular target: T1, HGREM1-His (ACRO); experiment: ELISA: antibody coated, Gremlin-his titrated, anti-his-HRP; the concentration is that of Gremlin-his
Experimental: (§2) Using a similar ELISA protocol mentioned above, binding of chimeric antibody 14E3 to XM5 or Gremlin were tested. […] The secondary antibody anti-his-HRP was used for detection.

hGREM1 (Peprotech) [8] = molecular target: T7, hGREM1 (Peprotech) (human, UniProt O60565 25-184); experiment: Biacore at 25 °C, Gremlin (Peprotech) on the chip, antibody as analyte
T7 construct: also called biotin-hGremlin
T7 sequence: T1 sequence
Experimental: (§3) HGREM1 (Peprotech) was immobilized on the Biacore sensor chip. Kinetic experiments were carried out using HBS-EP+ as both the running buffer and the sample buffer. […] Antibody-antigen association was monitored for 180 s while dissociation in buffer was monitored for 360 s. Kinetic analysis was performed using Biacore T200 evaluation software to determine Ka and Kd values. KD was calculated from the experimentally determined Ka and Kd values as KD=Kd/Ka.

HGREM1-His (ACRO) [9] = molecular target: T1, HGREM1-His (ACRO); experiment: ELISA, binding to hGremlin-his
hGREM1 (Peprotech) [10] = molecular target: T7, hGREM1 (Peprotech); experiment: SPR Biacore T200, 25 C, hGREM1 (Peprotech) immobilized, antibody 12.5-400 nM
Experimental: as §3

XM5-his = molecular target: T8, XM5-his (human (hGREM1 with residues 123-143 …)); experiment: ELISA: antibody coated, XM5-his supernatant titrated (axis: supernatant percentage, %), anti-his-HRP
T8 construct: Unpurified supernatant used; also called gremlin-DAN fusion protein XM5; chimeric hGREM1
T8 chain: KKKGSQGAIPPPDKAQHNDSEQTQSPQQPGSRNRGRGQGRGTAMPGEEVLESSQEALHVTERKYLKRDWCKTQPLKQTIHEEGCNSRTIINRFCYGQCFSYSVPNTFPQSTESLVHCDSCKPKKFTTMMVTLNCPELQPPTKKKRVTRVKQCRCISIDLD
Experimental: as §2

B1: recombinant human BMP4 (ligand, UniProt P12644 293-408, looked up)
chain: T5 sequence
notes: also called hBMP4
Does B1 bind (HGREM1-His (ACRO) [1])?
Result: binds

Does B1 bind (Gremlin-Fc [2])?
Result: binds

B2: recombinant human BMP2 (ligand, UniProt P12643 283-396, looked up)
chain: QAKHKQRKRLKSSCKRHPLYVDFSDVGWNDWIVAPPGYHAFYCHGECPFPLADHLNSTNHAIVQTLVNSVNSKIPKACCVPTELSAISMLYLDENEKVVLKNYQDMVVEGCGCR
notes: also called hBMP2
Which results are given for B2?
binding result (HGREM1-His (ACRO) [3]): binds; binding result (Gremlin-Fc [4]): binds

B3: XM5-Fc (Fc fusion, not shown: a dimerising Fc or GST)
chain: T8 chain
notes: also called gremlin 1-DAN fusion protein
Which results are given for B3?
binding result (BMP7 with his-tag): no binding (tested: 2.00 ug/ml); binding result (BMP2 with his-tag): no binding (tested: 2.00 ug/ml); binding result (BMP4 with his-tag): no binding (tested: 2.00 ug/ml)

B4: humanized anti-gremlin1 antibody 14E3 (variant not stated) (antibody, V domains shown)
VH: QVQLVQSGSELKKPGASVKVSCKASGYTFTTYGMAWMRQAPGQGLEWMGWINTLSGEPTYADDFKGRFVFSLDTSVSTAYLQISSLKAEDTAVYYCAREPMDYWGQGTMVTVSS
VL: DVVMTQSPLSLPVTLGQPASISCKSSQSLLDSDGKTYLSWLQQRPGQSPRRLIYLVSKLDSGVPDRFSGSGSGTDFTLKISRVEAEDVGVYYCWQGAHFPLTFGQGTKLEIK
notes: also called Hu14E3; humanized 14E3
How did the Kd (HGREM1-His (ACRO) [5]) turn out when B4 was run?
Its Kd is less than 1 nM.

B5: 14E3-C (chimeric antibody of 14E3) (antibody, V domains shown)
VH: QIQLVQSGPELKKPGETVKISCKTSGSTFTTYGMAWMKQAPGKGLTWMGWINTLSGEPTYADDFKGRFAFSLKTSANTAYLQINNLKNEDAATYFCAREPMDYWGQGTSVIVSS
VL: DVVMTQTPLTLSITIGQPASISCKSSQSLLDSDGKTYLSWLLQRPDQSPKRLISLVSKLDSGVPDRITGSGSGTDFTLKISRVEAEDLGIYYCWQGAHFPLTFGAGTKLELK
notes: also called chimeric 14E3; 14E3 hIgG1
Which EC50 [6] does the source give for B5 here?
Its EC50 is 5.24 ng/mL.

What about the “EC50 (read off the curve)” value (HGREM1-His (ACRO) [7]) of the same binder?
The value was roughly 10 ng/mL.

And the koff (hGREM1 (Peprotech) [8])?
Its koff is 0.000882 s⁻¹.

And the kon (hGREM1 (Peprotech) [8])?
The kon was 49900 M⁻¹ s⁻¹.

And the EC50 (HGREM1-His (ACRO) [9])?
Its EC50 is 6.8 ng/mL.

What about the Kd (hGREM1 (Peprotech) [10]) of the same binder?
Its Kd is 17.7 nM.

Does B5 bind (XM5-his)?
Result: binds
